This note sets out measurements from paper PMC9010765.

In test [1] the target is human myeloperoxidase (human). Description: SPR; BIAcore 3000; MPO immobilised on a CM5 chip through primary amino groups; apoA-I 0.5 nM to ~3000 nM flowed over at 20 uL/min in 10 mM PBS, pH 7.4; fit to 1:1 binding with a drifting baseline; apparent KD. Background: SPR reads the build-up and loss of mass on a sensor chip optically.
The target in test [2] is human myeloperoxidase (human) (UniProt P05164). Description: SPR; BIAcore 3000; MPO immobilised on a CM5 chip through primary amino groups; lipid-poor apoA-I 0.5 nM to 3 uM flowed over at 20 ul/min in 10 mM PBS pH 7.4; 1:1 binding with drifting baseline model; apparent KD.

Chain of human myeloperoxidase (human) (P05164 165-745): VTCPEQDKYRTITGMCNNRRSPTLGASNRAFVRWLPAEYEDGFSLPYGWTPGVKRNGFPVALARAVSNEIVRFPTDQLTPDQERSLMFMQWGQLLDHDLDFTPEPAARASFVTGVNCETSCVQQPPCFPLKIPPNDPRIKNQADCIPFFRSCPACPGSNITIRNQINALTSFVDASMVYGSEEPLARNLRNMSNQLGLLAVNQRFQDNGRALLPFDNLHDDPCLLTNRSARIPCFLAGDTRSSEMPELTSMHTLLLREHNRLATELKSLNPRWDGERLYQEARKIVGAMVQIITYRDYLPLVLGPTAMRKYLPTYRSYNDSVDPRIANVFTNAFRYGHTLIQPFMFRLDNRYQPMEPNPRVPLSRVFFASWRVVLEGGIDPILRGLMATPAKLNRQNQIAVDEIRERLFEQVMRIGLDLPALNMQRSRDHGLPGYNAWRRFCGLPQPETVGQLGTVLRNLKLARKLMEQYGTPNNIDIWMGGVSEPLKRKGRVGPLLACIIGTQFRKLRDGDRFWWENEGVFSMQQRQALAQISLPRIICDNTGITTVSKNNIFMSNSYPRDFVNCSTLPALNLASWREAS

With “recombinant human apolipoprotein A-I, lipid-poor (from UniProt P02647 19-267) (natural protein)”, in test [1], the Kd turned out to be 0.0751 µM, the off-rate constant (koff) came out at 0.00377 s⁻¹ and the kon came out at 50200 M⁻¹ s⁻¹. Moreover, in test [2], the Kd turned out to be 0.075 µM.

The koff is the rate constant with which the complex falls apart. As a reminder, the kon is the second-order rate constant of association.
